Data on one molecule can be found in patent US20100041074A1 (published 2010).

Where “and” joins values, the source holds several entries; their conditions need not be identical. Equal entries are not always repeated.

The target in this assay is GST fused GRP78 protein (GST-GRP78) purified from E. coli (UniProt P11021 19-654). Description: ELISA.

B1: toxin-labeled GD17 single-chain antibody (GD17scFv-PE40) (scFv)
scFv: MDHHHHHHHHHHKLQVQLQQSGAELARPGASVKLSCKASGYTFTSYWMHWVKQRPGQGLEWIGAIYPGDGDTRYTQKFKGKATLTADKSSSTAYMQLSSLASEDSAVYYCASGITAVADYWGQGTTLTVSSGGGGSGGGGSGGGGSDVVMTQTPLSLPVSLGDQASISCRSSQSLVHSNGNTYLHWYLQKPGQSPKLLIYKVSNRFSGVPDRFSGSGSGTDFTLKISRVEAEDLGVYFCSQSTHVPLTFGAGTKLELKEFGGAPEFPKPSTPPGSSGLEGGSLAALTAHQACHLPLETFTRHRQPRGWEQLEQCGYPVQRLVALYLAARLSWNQVDQVIRNALASPGSGGDLGEAIREQPEQARLALTLAAAESERFVRQGTGNDEAGAANADVVSLTCPVAAGECAGPADSGDALLERNYPTGAEFLGDGGDVSFSTRGTQNWTVERLLQAHRQLEERGYVFVGYHGTFLEAAQSIVFGGVRARSQDLDAIWRGFYIAGDPALAYGYAQDQEPDARGRIRNGALLRVYVPRSSLPGFYRTSLTLAAPEAAGEVERLIGHPLPLRLDAITGPEEEGGRLETILGWPLAERTVVIPSAIPTDPRNVGGDLDPSSIPDKEQAISALPDYASQPGKPPDYKDDDDKKDEL
Regarding B1, the EC50 is 1.41 nM and 1.25 nM.

What is called EC50 is the concentration at which the effect is half-maximal. Low values mean higher potency in that assay, high ones lower potency in that assay.
